# T1: human C1s mutant M18 (V288T) (human, UniProt P09871 16-688)
# T1 construct: The entry is the mutant itself
# T1 sequence: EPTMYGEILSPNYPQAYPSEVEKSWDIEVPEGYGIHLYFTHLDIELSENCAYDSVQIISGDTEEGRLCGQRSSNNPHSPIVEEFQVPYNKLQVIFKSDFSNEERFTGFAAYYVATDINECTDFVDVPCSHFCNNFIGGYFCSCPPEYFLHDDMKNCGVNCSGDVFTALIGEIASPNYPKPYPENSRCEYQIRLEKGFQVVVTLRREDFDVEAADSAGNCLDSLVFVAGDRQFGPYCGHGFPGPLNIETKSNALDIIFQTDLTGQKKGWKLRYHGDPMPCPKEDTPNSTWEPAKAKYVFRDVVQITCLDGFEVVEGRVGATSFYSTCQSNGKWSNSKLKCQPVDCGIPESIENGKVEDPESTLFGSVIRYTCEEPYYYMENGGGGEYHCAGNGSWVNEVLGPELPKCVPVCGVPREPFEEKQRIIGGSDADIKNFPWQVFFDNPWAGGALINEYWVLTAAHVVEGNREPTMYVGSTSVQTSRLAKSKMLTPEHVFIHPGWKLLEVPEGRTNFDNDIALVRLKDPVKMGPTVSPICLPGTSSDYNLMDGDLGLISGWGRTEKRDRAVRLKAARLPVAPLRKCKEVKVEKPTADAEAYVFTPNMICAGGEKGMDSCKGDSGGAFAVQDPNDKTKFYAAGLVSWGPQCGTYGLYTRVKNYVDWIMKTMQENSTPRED
# T2: human C1s mutant M17 (N380H) (human, UniProt P09871 16-688)
# T2 construct: The entry is the mutant itself
# T2 sequence: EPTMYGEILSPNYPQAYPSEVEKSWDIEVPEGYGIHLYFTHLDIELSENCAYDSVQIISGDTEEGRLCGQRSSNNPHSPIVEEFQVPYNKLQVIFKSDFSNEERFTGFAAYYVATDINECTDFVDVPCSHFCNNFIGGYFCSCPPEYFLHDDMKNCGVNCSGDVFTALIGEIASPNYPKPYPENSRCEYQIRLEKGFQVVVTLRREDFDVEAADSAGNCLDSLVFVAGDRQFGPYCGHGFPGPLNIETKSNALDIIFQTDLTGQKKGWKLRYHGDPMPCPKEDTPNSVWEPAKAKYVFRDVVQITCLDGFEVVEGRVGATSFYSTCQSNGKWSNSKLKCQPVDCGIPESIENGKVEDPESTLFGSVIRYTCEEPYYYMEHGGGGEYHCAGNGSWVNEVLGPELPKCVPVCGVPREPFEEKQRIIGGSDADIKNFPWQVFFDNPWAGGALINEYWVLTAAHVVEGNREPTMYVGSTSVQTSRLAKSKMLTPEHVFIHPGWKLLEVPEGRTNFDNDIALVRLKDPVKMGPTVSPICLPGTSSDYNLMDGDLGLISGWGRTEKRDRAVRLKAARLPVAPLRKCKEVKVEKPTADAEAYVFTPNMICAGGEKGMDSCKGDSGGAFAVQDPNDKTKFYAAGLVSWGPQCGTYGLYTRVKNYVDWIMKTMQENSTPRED
# What was measured:
# [1] = target: T1, human C1s mutant M18 (V288T); assay: ELISA, plate coated with human C1s mutant M18: V288T, OD450nm
# Description: (§1) ELISA was carried out by first coating 96-well plates with 200 ng/well of full-length or truncated C1s proteins overnight. The next morning, plates were blocked with SuperBlock T20 blocking buffer (Thermo Scientific 37536) for 1 h with gentle shaking. Then, various concentrations of anti-C1s antibodies diluted in SuperBlock T20 blocking buffer were added to the plates and incubated for 1 h with gentle shaking. Mouse IgG (Sigma-Aldrich 15381) and human IgG1 (BioXCell BP0297) were used as negative controls. The plates were washed before incubating with HRP conjugated secondary antibodies diluted in SuperBlock T20 blocking buffer (goat anti-mouse IgG (H+L) cross-adsorbed secondary antibody HRP (Invitrogen G-21040) or goat anti-human IgG antibody, HRP conjugate (Millipore AP309P)) for 1 h with gentle shaking. At last, the plates were washed and color developed with ELISA liquid HRP substrate (Sigma-Aldrich), followed by stopping the reaction with addition of 1M H₂SO₄ in the same volume as the ELISA liquid substrate. Bound antibody was measured by absorbance at OD₄₅₀ₙₘ.
# (§2) Binding of anti-C1s antibodies to mutants M1-M20 of human C1s was measured by ELISA as described in Example 4, and results are shown in FIGS. 6B-6U. All anti-C1s humanized variants including hz2-7(H1L2), hz2-8(H1L2 G80A) and hz2-8(H1L2 G80A/T82A) maintained strong binding properties to the majority (16 out of 20) of C1s mutants including M1 (FIG. 6B), M2 (FIG. 6C), M3 (FIG. 6D). M4 (FIG. 6E), M7 (FIG. 6H), M8 (FIG. 6I), M10 (FIG. 6K), M11 (FIG. 6L), M12 (FIG. 6M), M13 (FIG. 6N), M15 (FIG. 6P), M16 (FIG. 6Q), M17 (FIG. 6R), M18 (FIG. 6S), M19 (FIG. 6T) and M20 (FIG. 6U).
# [2] = target: T2, human C1s mutant M17 (N380H); assay: ELISA, plate coated with human C1s mutant M17: N380H, OD450nm
# Description: as §1, §2
Binder,EC50 [1] [ng/mL],EC50 [2] [ng/mL]
"Anti-C1s antibody hz2-8 (H1L2 G80A) (antibody, V domains shown, Humanized variant with G80A in HC CDR2 (already in the entry), human IgG1 / kappa) VH: QVQLVQSGAEVKKPGASVKVSCKASGFNIKEYYMHWVRQAPEQGLEWMGWIDPENADTIYAQKFQGRVTITADTSTNTAYMELSSLRSEDTAVYYCARSRLFFAYWGQGTLVTVSS VL: DIQMTQSPKSLSASVGDRVTITCRASQDVRTALDWYQQKPGQSPKLLIYSASYRYSGVPSRFSGSGSGTDFTLTISSLQPEDFATYYCQQQYTTPYTFGQGTKLEIKR",3,5
"Anti-C1s antibody hz2-8 (H1L2 G80A/T82A) (antibody, V domains shown, Humanized variant with G80A and T82A in HC CDR2 (already in the entry), human IgG1 / kappa) VH: QVQLVQSGAEVKKPGASVKVSCKASGFNIKEYYMHWVRQAPEQGLEWMGWIDPENADAIYAQKFQGRVTITADTSTNTAYMELSSLRSEDTAVYYCARSRLFFAYWGQGTLVTVSS VL: DIQMTQSPKSLSASVGDRVTITCRASQDVRTALDWYQQKPGQSPKLLIYSASYRYSGVPSRFSGSGSGTDFTLTISSLQPEDFATYYCQQQYTTPYTFGQGTKLEIKR",4,8
"Anti-C1s antibody hz2-7(H1L2) (antibody, V domains shown, Humanized, human IgG1 / kappa; also called hz2-7(1L2)) VH: EVQLLESGGGLVQPGGSLRLSCAASGFTFSNYFMNWVRQAPGKGLEWVSEIRLKFTNYATHYADSVKGRFTISRDDSKSTLYLQMNSLRAEDTAVYYCTRDYGSRNGYFDYWGQGTLVTVSS VL: DIVMTQTPLSLPVTPGEPASISCRSSKSLLHSNGNTFLYWFLQKPGQSPQLLIYRMSNLASGVPDRFSGSGSGTDFTLKISRVEAEDVGVYYCMQHLEYPYTFGGGTKLEIKR",5,4

# From US20230051715A1 (MABWELL THERAPEUTICS, published 2023)
